Assay results from US20060216231, “Methods for diagnosing and treating tumors and suppressing cd promoters” (published 2006).

Experiments:
hnRNP-K (GST fusion) [1] = target: T1, hnRNP-K (GST fusion) (Homo sapiens, UniProt P61978 SEQ:1-463); experiment: EMSA; 70 mM KCl, 5 mM NaCl, 20 mM Tris pH 7.5, poly(dI-dC), 4 C; competed by 100-fold unlabeled self; settings: tags: N-terminal GST fusion, expressed in E. coli XL-2 (construct from D. Levens); label: 32P 5'
Procedure: (§1) Binding reactions containing GST/hnRNP-K were performed in the absence (GST-K) or presence (+) of a 100 fold molar excess of unlabeled CD43 PyRo SS, the presence of Mut-11 (Mut) representing a mutant version of CD43 PyRo SS which fails to support PyRol binding Farokhzad et al., (2000) Nucleic Acids Research, 28:2256-2267) or the presence of an unrelated oligonucleotide (NS). The free probe and probe bound by the GST/hnRNP-K protein (GST:hnRNP-K) are arrowed.

hnRNP-K (GST fusion) [2] = target: T1, hnRNP-K (GST fusion); experiment: competition; 100-fold excess fails to compete n1 binding; settings: tags: N-terminal GST fusion, expressed in E. coli XL-2 (construct from D. Levens)
Procedure: as §1

hnRNP-K (GST fusion) [3] = target: T1, hnRNP-K (GST fusion); experiment: competition; unrelated competitor oligonucleotide; outcome not explicitly described in text; settings: tags: N-terminal GST fusion, expressed in E. coli XL-2 (construct from D. Levens)
Procedure: as §1

B1: CD43 PyRo SS (ssDNA)
DNA: GGGCCCACTTCCTTTCCCCTTG
binding result (hnRNP-K (GST fusion) [1]): binds

B2: CD43 Mut-11 (ssDNA)
DNA: GGGCCCACTTCCTTCATATATG
binding result (hnRNP-K (GST fusion) [2]): no binding

B3: NS-SS (ssDNA)
DNA: GAGTTAGCTCACTCATTAGG
binding result (hnRNP-K (GST fusion) [3]): no binding
